Reference: US20180057604A1 (Genentech, published 2018)
Residue numbers refer to the chain shown, from its start. Names may count otherwise. Like-named read-outs stand apart in the source and are kept apart here.

Legend:
[1] = target: T1, human BACE1 (R&D Systems) (human, UniProt P56817); assay: SPR (Biacore)
T1 construct: recombinant, commercial (R&D Systems)

[2] = target: murine BACE1 ECD; assay: cell-based or functional assay
[3] = target: human BACE1 ECD; assay: cell-based or functional assay
[4] = target: T2, BACE1 (HTRF long substrate and FRET short substrate assays of Example 9D); assay: cell-based or functional assay
[5] = target: T3, murine BACE1 ECD; assay: Octet, pH 7.5;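 also: antibodies captured on anti-human capture biosensor tips, dissociation followed in PBS with BSA buffer, kinetics fitted with a one-to-one binding model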
T3 construct: analyte of the Octet assay (200 nM) and enzyme of the first short substrate assay

[6] = target: T4, human BACE1 ECD; assay: Octet, pH 7.5;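 also: antibodies captured on anti-human capture biosensor tips, dissociation followed in PBS with BSA buffer, kinetics fitted with a one-to-one binding model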
T4 construct: analyte of the Octet assay (200 nM) and enzyme of the first short substrate assay; also called human BACE1 extracellular domain

[7] = target: T2, BACE1 (HTRF long substrate and FRET …); assay: cell-based or functional assay; remark: listed apart in the source
[8] = target: BACE1 in primary mouse cortical neurons (mouse, UniProt P56818 46-501); assay: cell-based or functional assay
[9] = target: T4, human BACE1 ECD; assay: Octet, pH 5.0
[10] = target: T3, murine BACE1 ECD; assay: Octet, pH 7.5; remark: listed apart in the source;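 also: antibodies captured on anti-human capture biosensor tips, dissociation followed in PBS with BSA buffer, kinetics fitted with a one-to-one binding model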
[11] = target: T4, human BACE1 ECD; assay: Octet, pH 7.5; remark: listed apart in the source;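 also: antibodies captured on anti-human capture biosensor tips, dissociation followed in PBS with BSA buffer, kinetics fitted with a one-to-one binding model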
[12] = target: T5, human TfR extracellular domain with N-terminal His tag (human, UniProt P02786 89-760); assay: SPR, TfR captured by anti-His, Fab injected;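 also: single cycle kinetics with a Fab dilution series, fitted by a one-to-one Langmuir model or a steady state model, KD taken as koff over kon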
T5 construct: Biotinylated in some assays; also called huTfR; HuTfR

[13] = target: T6, cyno TfR extracellular domain (analogous construct to human TfR ecd) (cynomolgus monkey, UniProt Q5RDH6 87-760 (Pongo abelii entry)); assay: SPR, TfR captured by anti-His, Fab injected;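 also: single cycle kinetics with a Fab dilution series, fitted by a one-to-one Langmuir model or a steady state model, KD taken as koff over kon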
T6 construct: also called cynoTfR ecd
T6 chain: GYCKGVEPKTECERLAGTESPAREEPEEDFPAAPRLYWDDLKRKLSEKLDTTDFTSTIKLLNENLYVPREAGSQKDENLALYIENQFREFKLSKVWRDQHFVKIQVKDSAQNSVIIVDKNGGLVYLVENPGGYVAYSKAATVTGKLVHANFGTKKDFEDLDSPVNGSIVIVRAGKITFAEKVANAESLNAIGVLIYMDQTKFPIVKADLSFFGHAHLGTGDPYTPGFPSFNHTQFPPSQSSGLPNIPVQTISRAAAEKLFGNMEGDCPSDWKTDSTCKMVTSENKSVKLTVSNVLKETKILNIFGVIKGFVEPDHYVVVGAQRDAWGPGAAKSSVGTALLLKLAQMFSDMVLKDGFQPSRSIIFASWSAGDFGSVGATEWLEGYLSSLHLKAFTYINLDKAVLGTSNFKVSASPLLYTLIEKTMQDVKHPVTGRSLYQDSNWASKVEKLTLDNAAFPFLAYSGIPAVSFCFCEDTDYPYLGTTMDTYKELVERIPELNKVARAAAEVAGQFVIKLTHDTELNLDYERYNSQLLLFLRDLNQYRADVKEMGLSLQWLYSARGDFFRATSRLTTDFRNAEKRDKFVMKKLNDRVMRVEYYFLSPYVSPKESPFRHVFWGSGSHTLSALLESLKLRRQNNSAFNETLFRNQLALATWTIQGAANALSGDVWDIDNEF

[14] = target: T5, human TfR extracellular domain with …; assay: ELISA, IgG;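 also: ELISA of IgG-containing supernatants tested in 1:5 serial dilutions for 1 h, bound antibody read out with HRP anti-kappa antibody and TMB substrate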
[15] = target: T6, cyno TfR extracellular domain …; assay: ELISA, IgG;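 also: ELISA of IgG-containing supernatants tested in 1:5 serial dilutions for 1 h, bound antibody read out with HRP anti-kappa antibody and TMB substrate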

T1 sequence (P56817 22-457 limits assumed): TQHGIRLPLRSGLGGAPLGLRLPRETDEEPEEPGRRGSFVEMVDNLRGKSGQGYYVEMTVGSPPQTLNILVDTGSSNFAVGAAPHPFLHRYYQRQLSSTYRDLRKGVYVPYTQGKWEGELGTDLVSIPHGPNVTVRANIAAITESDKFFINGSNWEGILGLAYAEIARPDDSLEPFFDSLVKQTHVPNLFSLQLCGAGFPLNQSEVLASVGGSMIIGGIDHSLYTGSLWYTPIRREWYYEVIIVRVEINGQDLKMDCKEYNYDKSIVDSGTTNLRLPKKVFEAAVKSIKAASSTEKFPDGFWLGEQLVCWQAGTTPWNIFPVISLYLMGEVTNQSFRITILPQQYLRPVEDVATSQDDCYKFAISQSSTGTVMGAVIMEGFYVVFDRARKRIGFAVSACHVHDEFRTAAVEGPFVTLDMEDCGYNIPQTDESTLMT
T3 sequence (single chain, as listed by the source limits assumed): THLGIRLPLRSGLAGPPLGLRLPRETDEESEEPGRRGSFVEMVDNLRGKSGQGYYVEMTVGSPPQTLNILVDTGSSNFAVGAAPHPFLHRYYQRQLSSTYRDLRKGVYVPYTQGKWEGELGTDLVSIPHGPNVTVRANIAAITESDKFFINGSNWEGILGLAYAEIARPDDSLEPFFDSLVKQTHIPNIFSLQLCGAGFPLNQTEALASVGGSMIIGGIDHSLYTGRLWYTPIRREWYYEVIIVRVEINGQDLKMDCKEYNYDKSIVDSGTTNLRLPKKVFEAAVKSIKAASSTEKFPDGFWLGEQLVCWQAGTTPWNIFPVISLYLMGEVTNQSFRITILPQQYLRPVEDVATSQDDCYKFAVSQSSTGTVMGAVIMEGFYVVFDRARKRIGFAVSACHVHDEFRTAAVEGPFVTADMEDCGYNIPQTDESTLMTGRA
T5 sequence (P02786 89-760 G142S): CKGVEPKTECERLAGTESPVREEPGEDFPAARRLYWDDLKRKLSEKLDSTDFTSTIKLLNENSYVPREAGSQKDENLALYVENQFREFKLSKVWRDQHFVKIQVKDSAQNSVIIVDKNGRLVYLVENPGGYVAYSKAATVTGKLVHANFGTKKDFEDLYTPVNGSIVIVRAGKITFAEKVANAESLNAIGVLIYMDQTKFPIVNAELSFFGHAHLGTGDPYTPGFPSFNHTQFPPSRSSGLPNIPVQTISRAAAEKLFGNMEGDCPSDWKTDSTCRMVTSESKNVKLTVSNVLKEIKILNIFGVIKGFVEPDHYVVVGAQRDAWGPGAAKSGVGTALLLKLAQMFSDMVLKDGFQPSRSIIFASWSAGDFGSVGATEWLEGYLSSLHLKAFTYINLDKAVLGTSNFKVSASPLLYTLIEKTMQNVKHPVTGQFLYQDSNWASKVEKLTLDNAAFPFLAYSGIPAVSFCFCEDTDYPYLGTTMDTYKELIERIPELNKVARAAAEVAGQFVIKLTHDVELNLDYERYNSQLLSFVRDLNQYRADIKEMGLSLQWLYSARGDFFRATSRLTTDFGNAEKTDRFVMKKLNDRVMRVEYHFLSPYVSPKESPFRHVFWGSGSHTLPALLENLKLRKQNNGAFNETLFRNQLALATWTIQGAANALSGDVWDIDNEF
T4 sequence (single chain, as listed by the source limits assumed): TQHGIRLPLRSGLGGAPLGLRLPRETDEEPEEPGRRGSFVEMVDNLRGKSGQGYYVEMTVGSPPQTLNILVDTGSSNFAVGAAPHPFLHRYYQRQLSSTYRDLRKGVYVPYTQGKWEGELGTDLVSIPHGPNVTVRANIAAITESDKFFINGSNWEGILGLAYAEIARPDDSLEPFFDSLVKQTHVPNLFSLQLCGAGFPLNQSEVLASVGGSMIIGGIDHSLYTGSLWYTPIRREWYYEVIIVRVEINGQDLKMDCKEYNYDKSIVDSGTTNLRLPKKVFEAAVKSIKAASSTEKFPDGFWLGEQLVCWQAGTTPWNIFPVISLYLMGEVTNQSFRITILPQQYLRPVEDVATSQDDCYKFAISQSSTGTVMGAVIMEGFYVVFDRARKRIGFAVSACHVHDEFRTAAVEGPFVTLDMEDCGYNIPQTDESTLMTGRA
Chain of BACE1 in primary mouse cortical neurons (P56818 46-501): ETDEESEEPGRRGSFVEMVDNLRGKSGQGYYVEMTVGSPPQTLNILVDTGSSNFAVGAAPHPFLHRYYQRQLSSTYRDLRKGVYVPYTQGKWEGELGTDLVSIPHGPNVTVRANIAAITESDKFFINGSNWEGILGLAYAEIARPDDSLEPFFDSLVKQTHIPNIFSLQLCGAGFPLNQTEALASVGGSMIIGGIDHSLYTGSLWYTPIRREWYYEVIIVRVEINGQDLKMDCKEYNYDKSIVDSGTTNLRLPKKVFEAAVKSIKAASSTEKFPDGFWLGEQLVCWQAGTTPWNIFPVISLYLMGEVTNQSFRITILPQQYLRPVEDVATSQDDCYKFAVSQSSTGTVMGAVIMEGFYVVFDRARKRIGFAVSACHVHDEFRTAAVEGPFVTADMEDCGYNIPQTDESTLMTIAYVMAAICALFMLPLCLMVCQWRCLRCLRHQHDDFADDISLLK

B1: 5532 (antibody, V domains shown)
VH: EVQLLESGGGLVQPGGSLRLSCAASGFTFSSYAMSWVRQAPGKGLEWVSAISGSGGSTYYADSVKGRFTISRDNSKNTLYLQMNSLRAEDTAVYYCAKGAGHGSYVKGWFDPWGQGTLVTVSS
VL: EIVLTQSPATLSLSPGERATLSCRASQSVSSYLAWYQQKPGQAPRLLIYDASNRATGIPARFSGSGSGTDFTLTISSLEPEDFAVYYCQQSSNFPFTFGGGTKVEIK
notes: anti-BACE1 IgG
In the case of B1, the Kd [1] is reported as 0.13 µM, the “% inhibition of BACE1 activity, short FRET substrate” value (from here on “% inhibition of BACE1 activity”) [2] is reported as 50% and the “% inhibition of BACE1 activity” value [3] is reported as 56%. For the same binder, the “EC50, FRET short substrate” value [4] was 0.0523 µM, the “EC50, HTRF long substrate” value [4] was 0.104 µM and the Kd [5] was 0.048 µM. It also gave a Kd [6] of 0.076 µM.

B2: 5592 (antibody, V domains shown)
VH: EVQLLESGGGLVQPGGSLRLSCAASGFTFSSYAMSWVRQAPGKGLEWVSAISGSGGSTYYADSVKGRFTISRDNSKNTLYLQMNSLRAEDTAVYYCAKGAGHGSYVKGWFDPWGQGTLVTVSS
VL: B1 VL with S92V
notes: anti-BACE1 IgG
For B2, the Kd [1] was 0.105 µM, the “% inhibition of BACE1 activity” value [2] was 60% and the “% inhibition of BACE1 activity” value [3] was 63%. The “EC50, FRET short substrate” value [4] was 0.0959 µM, the “EC50, HTRF long substrate” value [4] was 0.189 µM and the Kd [5] was 0.038 µM. The Kd [6] was 0.059 µM.

B3: 5903 (antibody, V domains shown)
VH: QLQLQESGPGLVKPSETLSLTCTVSGGSISSSSYYWGWIRQPPGKGLEWIGMIYYSGSTWYNPSLKSRVTISVDTSKNQFSLKLSSVTAADTAVYYCARVGHGISYFDLWGRGTLVTVSS
VL: EIVLTQSPATLSLSPGERATLSCRASQSVSSYLAWYQQKPGQAPRLLIYDASKRATGIPARFSGSGSGTDFTLTISSLEPEDFAVYYCQQVYTWPPRTFGGGTKVEIK
With B3 the “EC50, FRET short substrate” value [7] was 0.00312 µM, the “EC50, HTRF long substrate” value [7] was 0.00138 µM and the “IC50, Abeta x-40 in mouse cortical neurons” value [8] was 0.00163 µM. The “IC50, Abeta x-40 in mouse cortical neurons (5903*, second run)” value [8] was 0.00727 µM and the “maximal % inhibition of Abeta x-40” value [8] was 72%.

B4: 5983 (antibody, V domains shown)
VH: B3 VH with M52N, W60Y, K66R, S81F, V100L, I104Y, S105N
VL: B3 VL with Y36F, K53N, T93V
notes: anti-BACE1 IgG
A Kd [9] of 0.00034 µM, a Kd [10] of under 0.00024 µM and a Kd [11] of 0.00035 µM were found for B4 in this work. For the same binder, the “IC50, Abeta x-40 in mouse cortical neurons” value [8] was 0.00734 µM and the “maximal % inhibition of Abeta x-40” value [8] was 72%.

B5: 5583 (antibody, V domains shown)
VH: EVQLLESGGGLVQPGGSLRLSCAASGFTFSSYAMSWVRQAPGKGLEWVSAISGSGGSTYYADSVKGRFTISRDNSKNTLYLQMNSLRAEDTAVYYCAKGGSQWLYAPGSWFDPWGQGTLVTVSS
VL: B1 VL with Q89V, S91R, F96W
notes: anti-BACE1 IgG
In the case of B5, the Kd [1] is reported as 0.0818 µM, the “% inhibition of BACE1 activity” value [2] is reported as 34% and the “% inhibition of BACE1 activity” value [3] is reported as 44%. For the same binder, the “EC50, FRET short substrate” value [4] was 0.00972 µM, the “EC50, HTRF long substrate” value [4] was 0.172 µM and the Kd [5] was 0.051 µM. It also gave a Kd [6] of 0.078 µM.

B6: Hu15G11.v3.Fab (Fab, V domains shown)
VH: EVQLVQSGAEVKKPGASVKVSCKASGYTFTSYWMHWVRQAPGQRLEWMGEINPTNGRTNYIEKFKSRVTITRDTSASTAYMELSSLRSEDTAVYYCARGTRAYHYWGQGTMVTVSS
VL: DIQMTQSPSSLSASVGDRVTITCRASDNLYSNLAWYQQKPGKSPKLLVYDATNLADGVPSRFSGSGSGTDYTLTISSLQPEDFATYYCQHFWGTPLTFGQGTKVEIK
notes: Fab
A Kd [12] of 0.00726 µM, a koff [12] of 0.00466 s⁻¹ and a kon [12] of 642000 M⁻¹ s⁻¹ were found for B6 in this work. The Kd [13] was 0.0416 µM, the koff [13] was 0.0201 s⁻¹ and the kon [13] was 483000 M⁻¹ s⁻¹.

B7: D101A (antibody, V domains shown)
VH: EVQLVQSGAEVKKPGASVKVSCKGSGYTFTDYAMHWVRQAPGQGLEWMGGISTYFGRTNYNQKFKGRVTMTVDTSISTAYMELSRLRSDDTAVYYCARGLSGNYVMAYWGQGTTVTVSS
VL: DIVMTQSPDSLAVSLGERATINCRASESVDSYGNSFMHWYQQKPGQPPKLLIYRASNLESGVPDRFSGSGSRTDFTLTISSLQAEDVAVYYCQQSNEAPPTFGQGTKLEIK
notes: also called 7A4.v15 D101A (CDR-H3) IgG; copies: 2 + 2
An EC50 [14] of 0.0173 mg/L and an EC50 [15] of 0.0185 mg/L were found for B7 in this work.

B8: E93A (antibody, V domains shown)
VH: B7 VH with A107D
VL: B7 VL with E97A
notes: also called 7A4.v15 E93A (CDR-L3) IgG
An EC50 [14] of 0.0122 mg/L and an EC50 [15] of 0.0176 mg/L were found for B8 in this work.

B9: G95A (antibody, V domains shown)
VH: B7 VH with G99A, A107D
VL: B7 VL
notes: also called 7A4.v15 G95A (CDR-H3) IgG; copies: 2 + 2
An EC50 [14] of 0.0135 mg/L and an EC50 [15] of 0.0418 mg/L were found for B9 in this work.

B10: G98A (antibody, V domains shown)
VH: B7 VH with G102A, A107D
VL: B7 VL
notes: also called 7A4.v15 G98A (CDR-H3) IgG; copies: 2 + 2
An EC50 [14] of 0.0194 mg/L and an EC50 [15] of 0.0247 mg/L were found for B10 in this work.

B11: Hu7A4.v9.Fab (Fab, V domains shown)
VH: B7 VH with G24A, V72R, A107D
VL: B7 VL with A98G
notes: Fab
A Kd [12] of 0.000401 µM, a koff [12] of 0.000686 s⁻¹ and a kon [12] of 1.71e+06 M⁻¹ s⁻¹ were found for B11 in this work. The Kd [13] was 0.00423 µM, the koff [13] was 0.00342 s⁻¹ and the kon [13] was 808000 M⁻¹ s⁻¹.

B12: Hu7A4.v12.Fab (Fab, V domains shown)
VH: B7 VH with A107D
VL: B7 VL with A98G
notes: Fab
A Kd [12] of 0.000255 µM, a koff [12] of 0.000844 s⁻¹ and a kon [12] of 3.32e+06 M⁻¹ s⁻¹ were found for B12 in this work. It also gave a Kd [13] of 0.0019 µM, a koff [13] of 0.00331 s⁻¹ and a kon [13] of 1.74e+06 M⁻¹ s⁻¹.

B13: L96A (antibody, V domains shown)
VH: B7 VH with L100A, A107D
VL: B7 VL
notes: also called 7A4.v15 L96A (CDR-H3) IgG; copies: 2 + 2
An EC50 [14] of 0.0155 mg/L and an EC50 [15] of 0.0287 mg/L were found for B13 in this work.

B14: M100bA (antibody, V domains shown)
VH: B7 VH with M106A, A107D
VL: B7 VL
notes: also called 7A4.v15 M100bA (CDR-H3) IgG; copies: 2 + 2
An EC50 [14] of 0.0161 mg/L and an EC50 [15] of 0.0169 mg/L were found for B14 in this work.

B15: N92A (antibody, V domains shown)
VH: B7 VH with A107D
VL: B7 VL with N96A
notes: also called 7A4.v15 N92A (CDR-L3) IgG
An EC50 [14] of 0.0087 mg/L and an EC50 [15] of 0.0137 mg/L were found for B15 in this work.

B16: P95A (antibody, V domains shown)
VH: B7 VH with A107D
VL: B7 VL with P99A
notes: also called 7A4.v15 P95A (CDR-L3) IgG
An EC50 [14] of 0.0097 mg/L and an EC50 [15] of 0.0159 mg/L were found for B16 in this work.

B17: P96A (antibody, V domains shown)
VH: B7 VH with A107D
VL: B7 VL with P100A
notes: also called 7A4.v15 P96A (CDR-L3) IgG
An EC50 [14] of 0.01 mg/L and an EC50 [15] of 0.0162 mg/L were found for B17 in this work.

B18: Q89A (antibody, V domains shown)
VH: B7 VH with A107D
VL: B7 VL with Q93A
notes: also called 7A4.v15 Q89A (CDR-L3) IgG
An EC50 [14] of 0.0109 mg/L and an EC50 [15] of 0.0138 mg/L were found for B18 in this work.

B19: S91A (antibody, V domains shown)
VH: B7 VH with A107D
VL: B7 VL with S95A
notes: also called 7A4.v15 S91A (CDR-L3) IgG
An EC50 [14] of 0.0113 mg/L and an EC50 [15] of 0.0163 mg/L were found for B19 in this work.

B20: T97A (antibody, V domains shown)
VH: B7 VH with A107D
VL: B7 VL with T101A
notes: also called 7A4.v15 T97A (CDR-L3) IgG
An EC50 [14] of 0.012 mg/L and an EC50 [15] of 0.0226 mg/L were found for B20 in this work.

B21: Y100A (antibody, V domains shown)
VH: B7 VH with Y104A, A107D
VL: B7 VL
notes: also called 7A4.v15 Y100A (CDR-H3) IgG; copies: 2 + 2
An EC50 [14] of 0.0159 mg/L and an EC50 [15] of 0.024 mg/L were found for B21 in this work.

B22: Y102A (antibody, V domains shown)
VH: B7 VH with A107D, Y108A
VL: B7 VL
notes: also called 7A4.v15 Y102A (CDR-H3) IgG; copies: 2 + 2
An EC50 [14] of 0.0126 mg/L and an EC50 [15] of 0.0178 mg/L were found for B22 in this work.
